This note sets out measurements from patent KR20220059888A (dated 2022).

One test has as its target T1, 개 Tie2 단백질 (개 (dog), UniProt A0A8I3S0B4 27-1128).
T1 construct: whole, on cells; also called 다른 종 유래의 Tie2 단백질
Description: flow cytometry; HEK293T cells transfected with dog Tie2. Background: In flow cytometry, cells or beads pass a laser one at a time.

The target in another test is T2, 랫 Tie2 단백질 (랫 (rat), UniProt A0ABK0L6J5 19-1116).
T2 construct: whole, on cells; also called 다른 종 유래의 Tie2 단백질
Description: flow cytometry; HEK293T cells transfected with rat Tie2.

A further test addresses T3, 마우스 Tie2 단백질 (마우스 (mouse), UniProt Q02858 23-1122).
T3 construct: whole, on cells; also called 다른 종 유래의 Tie2 단백질
Description: flow cytometry; HEK293T cells transfected with mouse Tie2.

T3 sequence (Q02858 23-1122): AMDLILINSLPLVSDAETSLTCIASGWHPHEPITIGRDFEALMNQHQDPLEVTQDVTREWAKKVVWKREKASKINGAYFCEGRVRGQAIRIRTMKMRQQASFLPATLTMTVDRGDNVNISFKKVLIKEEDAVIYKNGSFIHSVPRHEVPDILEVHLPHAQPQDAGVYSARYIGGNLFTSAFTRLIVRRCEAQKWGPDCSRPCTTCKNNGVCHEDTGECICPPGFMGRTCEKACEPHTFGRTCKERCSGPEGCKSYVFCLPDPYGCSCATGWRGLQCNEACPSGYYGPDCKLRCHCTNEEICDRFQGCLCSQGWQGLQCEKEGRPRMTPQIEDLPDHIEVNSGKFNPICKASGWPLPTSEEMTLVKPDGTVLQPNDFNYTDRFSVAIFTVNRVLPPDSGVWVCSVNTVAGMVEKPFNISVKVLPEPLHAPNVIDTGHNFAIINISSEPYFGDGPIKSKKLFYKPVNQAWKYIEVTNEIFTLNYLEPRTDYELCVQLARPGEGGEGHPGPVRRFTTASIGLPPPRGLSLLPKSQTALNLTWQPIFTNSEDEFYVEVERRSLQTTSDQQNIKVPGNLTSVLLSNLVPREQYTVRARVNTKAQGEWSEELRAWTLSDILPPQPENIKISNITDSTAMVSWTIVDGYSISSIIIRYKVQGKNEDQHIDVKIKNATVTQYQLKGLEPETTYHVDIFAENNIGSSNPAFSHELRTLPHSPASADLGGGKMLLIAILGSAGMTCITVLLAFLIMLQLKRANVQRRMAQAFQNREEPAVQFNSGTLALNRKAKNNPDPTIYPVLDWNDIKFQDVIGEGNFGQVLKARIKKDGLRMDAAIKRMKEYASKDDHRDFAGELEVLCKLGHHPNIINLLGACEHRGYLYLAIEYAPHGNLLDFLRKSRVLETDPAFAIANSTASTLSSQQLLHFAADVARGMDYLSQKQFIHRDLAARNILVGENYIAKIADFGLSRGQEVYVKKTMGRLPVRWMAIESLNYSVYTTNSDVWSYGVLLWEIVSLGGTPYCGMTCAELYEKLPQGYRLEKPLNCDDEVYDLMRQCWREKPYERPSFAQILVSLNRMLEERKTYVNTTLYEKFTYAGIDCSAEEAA

B1: Ang1mab2-1 (antibody, human IgG1, kappa, V domains shown)
VH: QVQLVESGGGVVQPGRSLRLSCAASGFTFSSYAMHWVRQAPGKGLEWVAVISYDGSNKYYADSVKGRFTISRDNSKNTLYLQMNSLRAEDTAVYYCARQYSGVFEYWGQGTLITVSS
VL: DIQMTQSPDSLAVSLGERATINCKSSQSVLYRSNNRNYLAWYQQKLGQPPQLLIYWASTRESGVPDRFSGSGSGADFTLTISSLQAEDVAVYYCQQYFSIPYTFGQGTKLEIKR
notes: also called 제2 기본 항체
As for B1, the binding result in the test with 개 Tie2 단백질, in the test with 랫 Tie2 단백질 and with 마우스 Tie2 단백질 was “no binding (tested: 5-g/ml (so in the source))” each time.
